Substrate: O=C(O)c1nc(O)ccc1O
Experiment: purified protein
Format: biochemical, Bordetella bronchiseptica
Conditions: 50 mM PBS pH 7.4 (unit definition says pH 7.0), 25 °C, 0 to 300 μM 3,6DHPA, no added metal stated

B1: PicCRB50 (Bordetella bronchiseptica RB50) (protein)
chain: MTKVRKIAFEEHFTAVGFGDYSKAFVQHLDPGFAAELGARLTDFGAGRLAEMDAAGIDYAILSQTGPGVQGEPDAAVALRRARENNDFLAERIARHPDRFGGFAALPMHDPKTAAAELTRAVRELGFKGSLVNGHTNGVYYDDPAYDAFWEQMQELDVPLYLHPFDAYVLPHAYKGHPELAGATWGWGVETGTHALRLLFGGVFDRFPKLKIILGHMGEGLPFQRWRFDSRFAAYPYGVKLQRAPSEYIGSNILITTSGVCSHPTLVGAIAEMGAEAVMFSIDYPYESTALAVEFIESAPLDAATRELVCYGNAARLFKL
Km: 20.41 ± 2.60 µM | kcat: 7.61 ± 0.53 S^−1

From article PMC10142695, “Expression and Characterization of 3,6-Dihydroxy-picolinic Acid Decarboxylase PicC of Bordetella bronchiseptica RB50” (Microorganisms, 2023)
